Where a chain is given by its changes, count along the chain named. Names may count otherwise.

To fix the notation:
T1: RAD54L WT (human, UniProt Q92698 1-747)
T1 sequence (looked up): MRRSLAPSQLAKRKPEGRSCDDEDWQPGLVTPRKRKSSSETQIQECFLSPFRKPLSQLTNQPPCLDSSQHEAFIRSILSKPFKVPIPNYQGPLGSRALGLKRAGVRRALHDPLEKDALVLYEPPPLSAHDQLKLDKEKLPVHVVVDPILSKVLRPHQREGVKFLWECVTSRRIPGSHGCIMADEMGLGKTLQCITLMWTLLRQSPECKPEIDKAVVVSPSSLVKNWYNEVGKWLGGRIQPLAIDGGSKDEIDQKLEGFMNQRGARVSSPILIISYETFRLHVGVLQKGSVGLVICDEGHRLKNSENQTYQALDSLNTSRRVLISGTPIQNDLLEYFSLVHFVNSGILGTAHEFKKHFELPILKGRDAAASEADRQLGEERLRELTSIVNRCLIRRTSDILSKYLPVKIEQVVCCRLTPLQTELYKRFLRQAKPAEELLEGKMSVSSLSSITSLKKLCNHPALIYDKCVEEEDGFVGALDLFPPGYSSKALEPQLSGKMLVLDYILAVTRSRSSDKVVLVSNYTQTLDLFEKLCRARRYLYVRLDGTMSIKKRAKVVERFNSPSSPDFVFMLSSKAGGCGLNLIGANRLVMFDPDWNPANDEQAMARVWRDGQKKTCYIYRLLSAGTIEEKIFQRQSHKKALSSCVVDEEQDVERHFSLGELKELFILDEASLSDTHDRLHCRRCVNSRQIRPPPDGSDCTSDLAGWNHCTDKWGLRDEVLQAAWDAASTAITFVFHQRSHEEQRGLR

T2: XRCC3 WT (human, UniProt O43542 1-346)
T2 sequence (looked up): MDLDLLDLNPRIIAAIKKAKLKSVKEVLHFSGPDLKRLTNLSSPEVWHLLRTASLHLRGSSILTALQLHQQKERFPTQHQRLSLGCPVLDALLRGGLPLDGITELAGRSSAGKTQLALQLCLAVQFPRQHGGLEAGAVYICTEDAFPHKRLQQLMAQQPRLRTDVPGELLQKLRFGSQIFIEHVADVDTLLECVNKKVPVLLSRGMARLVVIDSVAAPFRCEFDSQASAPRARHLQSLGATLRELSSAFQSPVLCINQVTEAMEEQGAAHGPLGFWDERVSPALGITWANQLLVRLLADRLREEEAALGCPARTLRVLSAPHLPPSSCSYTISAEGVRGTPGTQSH

B1: RAD51 WT (natural protein, human, UniProt Q06609 1-339, looked up)
chain: MAMQMQLEANADTSVEEESFGPQPISRLEQCGINANDVKKLEEAGFHTVEAVAYAPKKELINIKGISEAKADKILAEAAKLVPMGFTTATEFHQRRSEIIQITTGSKELDKLLQGGIETGSITEMFGEFRTGKTQICHTLAVTCQLPIDRGGGEGKAMYIDTEGTFRPERLLAVAERYGLSGSDVLDNVAYARAFNTDHQTQLLYQASAMMVESRYALLIVDSATALYRTDYSGRGELSARQMHLARFLRMLLRLADEFGVAVVITNQVVAQVDGAAMFAADPKKPIGGNIIAHASTTRLYLRKGRGETRICKIYDSPCLPEAEAMFAINADGVGDAKD
B2: RAD51 A55V (natural protein, human, UniProt Q06609 1-339, looked up)
chain: B1 chain with A55V
B3: RAD51 A79D (natural protein, human, UniProt Q06609 1-339, looked up)
chain: B1 chain with A79D

Assay in all cases: two-hybrid
The test “RAD51 A55V” concerns the target B2.
The test “RAD51 A79D” addresses B3.
For the test “RAD51 WT”, the target named is B1.
The target of another test is T1, RAD54L WT.
In the next test the target is T2, XRCC3 WT.

Take B1: the “Y2H % of WT” value with RAD51 A55V is 90.8 % of WT; with RAD51 A79D, 109 % of WT.
With B2, the figures for the “Y2H % of WT” value with RAD51 WT, with RAD54L WT and with XRCC3 WT were 135 % of WT, 112 % of WT and 97.8 % of WT, respectively.
With B3, the entries for the “Y2H % of WT” value in the test with RAD51 WT, with RAD54L WT and with XRCC3 WT were 95.1 % of WT, 90.6 % of WT and 21.5 % of WT, respectively.

Values taken from paper PMC5834346 (Familial cancer, 2018).
